Laboratory results: publication PMC6430397, “The pharmacological properties of 3-arm or 4-arm DOTA constructs for conjugation to α-melanocyte-stimulating hormone analogues for melanoma imaging” (PLoS ONE, 2019)

Experiments:
[1] = Stability analysis in plasma, liver and kidney of mice, ex vivo TLC; set-up: species or system mouse; conditions: γ-counter, mean ± SD, n = 3 mice
[2] = Partition coefficient, n-octanol / 0.1 M phosphate buffer; type: physicochemical; conditions: shake-flask, 2.0 mL n-octanol / 2.0 mL 0.1 M phosphate buffer pH 7.4, room temperature, 20 uL radioactive sample, mixed twice 1 min, radioactivity counting; mean ± SD; read-out: Partition coefficient, log (n-octanol/0.1 M phosphate buffer)
Experimental: The partition coefficients of ^111In-labeled 3-arm and 4-arm DOTA-α-MSH were measured using 2.0 mL n-octanol as the organic phase and 2.0 mL 0.l M phosphate buffer as the aqueous phase (pH 7.4 for plasma). N-octanol and the buffer were pre-mixed twice using a mechanical mixer for 1 min at room temperature. Then, 20 µL radioactive sample were added and mixed twice using a mechanical mixer for 1 min at room temperature. The radioactivity of 200 uL of each phase was measured after centrifugation. Calculation of log (n-octanol/0.l M phosphate buffer) was performed.

In the case of `CSCC[C@H](NC(=O)[C@H](CO)NC(=O)[C@H](Cc1ccc(O)cc1)NC(=O)[C@H](CO)NC(C)=O)C(=O)N[C@@H](CCC(=O)O)C(=O)N[C@@H](Cc1c[nH]cn1)C(=O)N[C@@H](Cc1ccccc1)C(=O)N[C@@H](CCCNC(=N)N)C(=O)N[C@@H](Cc1c[nH]c2ccccc12)C(=O)NCC(=O)N[C@@H](CCCCNC(=S)Nc1ccc(C[C@H]2CN(CC(=O)O)CCN(CC(=O)O)CCN(CC(=O)O)CCN2CC(=O)O)cc1)C(=O)N1CCC[C@H]1C(=O)N[C@H](C(=O)O)C(C)C` [^111In-labeled 4-arm DOTA-α-MSH, metal not drawn], the “Fraction ratio of intact radiotracer, Kidney (%)” value (shortened to “Fraction ratio … (%)”) ([1]; 10 min after i.v. injection 3.7 MBq/mouse) is reported as 96.1 ± 2.0%, the “Fraction ratio … (%)” value ([1]; 60 min after i.v. injection 3.7 MBq/mouse) is reported as 93.3 ± 3.5% and the “Fraction ratio … (%)” value ([1]; 120 min after i.v. injection 3.7 MBq/mouse) is reported as 84.5 ± 3.3%. The “Fraction ratio … (%)” value ([1]; 180 min after i.v. injection 3.7 MBq/mouse) was 80.5 ± 2.8% and the logD [2] was -0.13 ± 0.04.
